Measurements: patent publication US20160200782A1 (MOERAE MATRIX, published 2016)

T1: MRCKβ(h) (human, UniProt Q9Y5S2 1-473, limits assumed)
T1 sequence (looked up): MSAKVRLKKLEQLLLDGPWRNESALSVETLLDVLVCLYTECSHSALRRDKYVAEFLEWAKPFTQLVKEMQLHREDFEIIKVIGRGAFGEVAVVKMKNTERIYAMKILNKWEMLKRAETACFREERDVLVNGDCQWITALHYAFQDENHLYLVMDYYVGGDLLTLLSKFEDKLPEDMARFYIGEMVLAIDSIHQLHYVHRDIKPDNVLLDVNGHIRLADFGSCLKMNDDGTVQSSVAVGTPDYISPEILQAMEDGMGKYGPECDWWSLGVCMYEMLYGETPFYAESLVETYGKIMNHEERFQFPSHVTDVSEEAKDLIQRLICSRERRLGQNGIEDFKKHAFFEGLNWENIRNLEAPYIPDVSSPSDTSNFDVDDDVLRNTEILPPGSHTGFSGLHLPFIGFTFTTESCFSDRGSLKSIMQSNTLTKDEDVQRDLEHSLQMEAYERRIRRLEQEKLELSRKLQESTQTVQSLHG

T2: NEK2(h) (human, UniProt P51955 1-445, limits assumed)
T2 sequence (looked up): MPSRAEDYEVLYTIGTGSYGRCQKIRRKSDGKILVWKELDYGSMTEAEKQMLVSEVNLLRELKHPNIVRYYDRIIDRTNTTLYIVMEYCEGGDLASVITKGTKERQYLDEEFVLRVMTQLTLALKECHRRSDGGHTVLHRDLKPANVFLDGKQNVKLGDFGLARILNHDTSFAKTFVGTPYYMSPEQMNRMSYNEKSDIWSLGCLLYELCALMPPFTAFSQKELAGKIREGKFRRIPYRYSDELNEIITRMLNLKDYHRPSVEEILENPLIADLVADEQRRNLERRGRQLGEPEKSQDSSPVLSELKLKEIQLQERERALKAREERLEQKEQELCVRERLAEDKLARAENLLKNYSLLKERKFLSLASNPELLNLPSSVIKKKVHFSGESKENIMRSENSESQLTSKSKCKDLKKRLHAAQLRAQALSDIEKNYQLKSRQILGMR

T3: SAPK4(h) (human, UniProt O15264 1-365)
T3 sequence (looked up): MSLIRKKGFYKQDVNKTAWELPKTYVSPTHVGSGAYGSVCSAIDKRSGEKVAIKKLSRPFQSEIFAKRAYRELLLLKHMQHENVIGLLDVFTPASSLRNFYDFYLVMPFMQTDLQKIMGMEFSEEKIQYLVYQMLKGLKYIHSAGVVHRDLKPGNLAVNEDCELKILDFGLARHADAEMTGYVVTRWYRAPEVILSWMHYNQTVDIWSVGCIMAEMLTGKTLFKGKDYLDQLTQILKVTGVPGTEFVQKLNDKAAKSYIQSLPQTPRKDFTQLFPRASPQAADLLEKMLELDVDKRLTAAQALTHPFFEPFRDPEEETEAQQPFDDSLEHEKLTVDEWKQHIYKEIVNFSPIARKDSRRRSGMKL

T4: TAK1(h) (human, UniProt O43318 1-303, limits assumed)
T4 sequence (looked up): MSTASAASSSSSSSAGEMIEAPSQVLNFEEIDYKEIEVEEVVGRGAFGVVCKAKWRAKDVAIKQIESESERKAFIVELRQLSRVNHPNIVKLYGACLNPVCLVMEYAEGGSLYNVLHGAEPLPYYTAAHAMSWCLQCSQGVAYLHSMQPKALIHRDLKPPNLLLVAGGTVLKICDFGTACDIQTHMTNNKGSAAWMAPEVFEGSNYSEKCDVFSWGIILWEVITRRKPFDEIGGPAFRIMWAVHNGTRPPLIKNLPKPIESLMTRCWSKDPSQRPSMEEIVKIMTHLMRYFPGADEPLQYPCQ

T5: EphB1(h) (human, UniProt P54762 564-984, limits assumed)
T5 sequence (looked up): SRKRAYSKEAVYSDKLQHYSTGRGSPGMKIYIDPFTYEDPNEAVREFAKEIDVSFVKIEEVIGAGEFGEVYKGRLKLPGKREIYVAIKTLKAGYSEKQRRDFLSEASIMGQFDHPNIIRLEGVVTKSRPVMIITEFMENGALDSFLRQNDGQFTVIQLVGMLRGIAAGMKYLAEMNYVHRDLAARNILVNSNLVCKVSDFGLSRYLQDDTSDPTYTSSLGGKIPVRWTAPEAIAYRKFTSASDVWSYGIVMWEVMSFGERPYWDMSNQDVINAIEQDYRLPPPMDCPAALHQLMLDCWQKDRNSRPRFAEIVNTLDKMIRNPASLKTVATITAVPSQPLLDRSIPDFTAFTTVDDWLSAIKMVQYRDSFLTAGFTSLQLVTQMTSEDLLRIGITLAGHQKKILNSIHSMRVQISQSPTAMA


Key:
Experiment in all cases: cell-based or functional assay
ALK(h) = ALK(h) (human, UniProt Q9UM73 1058-1620, limits assumed)
Chain of ALK(h) (Q9UM73 1058-1620 limits assumed): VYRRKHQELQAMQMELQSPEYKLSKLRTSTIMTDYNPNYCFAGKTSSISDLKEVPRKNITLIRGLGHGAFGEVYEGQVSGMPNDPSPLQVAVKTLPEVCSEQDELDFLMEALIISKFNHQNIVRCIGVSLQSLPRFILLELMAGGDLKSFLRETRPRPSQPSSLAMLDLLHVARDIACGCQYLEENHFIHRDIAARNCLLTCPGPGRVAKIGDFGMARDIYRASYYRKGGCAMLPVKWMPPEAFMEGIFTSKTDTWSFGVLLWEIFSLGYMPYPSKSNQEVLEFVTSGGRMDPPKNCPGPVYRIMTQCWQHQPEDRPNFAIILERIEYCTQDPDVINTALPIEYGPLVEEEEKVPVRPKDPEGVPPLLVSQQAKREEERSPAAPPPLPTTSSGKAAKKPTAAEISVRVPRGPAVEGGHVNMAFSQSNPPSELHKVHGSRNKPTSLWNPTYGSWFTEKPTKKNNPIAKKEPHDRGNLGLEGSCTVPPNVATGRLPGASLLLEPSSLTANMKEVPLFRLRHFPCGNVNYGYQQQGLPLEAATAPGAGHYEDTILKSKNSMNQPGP

Met(Y1248C)(h) = Met(Y1248C)(h) (human, UniProt P08581-2 974-1408, limits assumed)
MRCKβ(h) = biological target: T1, MRCKβ(h)
NEK2(h) = biological target: T2, NEK2(h)
PKCβII(h) = PKCβII(h) (human, UniProt P05771-2 1-673)
Chain of PKCβII(h) (P05771 other isoform, or with tags, fused parts or gaps limits assumed): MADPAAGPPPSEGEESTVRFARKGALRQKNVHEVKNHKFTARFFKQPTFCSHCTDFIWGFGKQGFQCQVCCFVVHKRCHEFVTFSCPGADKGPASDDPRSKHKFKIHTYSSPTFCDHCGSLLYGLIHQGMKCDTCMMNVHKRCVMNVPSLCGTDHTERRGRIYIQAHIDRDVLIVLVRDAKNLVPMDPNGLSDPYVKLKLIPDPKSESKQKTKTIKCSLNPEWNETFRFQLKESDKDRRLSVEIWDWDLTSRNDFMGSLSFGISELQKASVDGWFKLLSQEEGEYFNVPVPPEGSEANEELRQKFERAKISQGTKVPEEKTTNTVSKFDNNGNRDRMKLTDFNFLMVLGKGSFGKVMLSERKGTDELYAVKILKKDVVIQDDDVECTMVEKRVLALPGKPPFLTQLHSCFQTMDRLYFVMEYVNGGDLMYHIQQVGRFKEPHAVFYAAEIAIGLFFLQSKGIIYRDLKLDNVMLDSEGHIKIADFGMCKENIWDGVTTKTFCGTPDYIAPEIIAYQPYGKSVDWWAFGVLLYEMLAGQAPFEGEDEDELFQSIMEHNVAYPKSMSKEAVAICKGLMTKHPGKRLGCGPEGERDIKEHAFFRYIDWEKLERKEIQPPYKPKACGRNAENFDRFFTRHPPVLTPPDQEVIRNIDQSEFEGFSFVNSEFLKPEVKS

RIPK2(h) = RIPK2(h) (human, UniProt O43353 1-299, limits assumed)
Chain of RIPK2(h) (O43353 1-299 limits assumed): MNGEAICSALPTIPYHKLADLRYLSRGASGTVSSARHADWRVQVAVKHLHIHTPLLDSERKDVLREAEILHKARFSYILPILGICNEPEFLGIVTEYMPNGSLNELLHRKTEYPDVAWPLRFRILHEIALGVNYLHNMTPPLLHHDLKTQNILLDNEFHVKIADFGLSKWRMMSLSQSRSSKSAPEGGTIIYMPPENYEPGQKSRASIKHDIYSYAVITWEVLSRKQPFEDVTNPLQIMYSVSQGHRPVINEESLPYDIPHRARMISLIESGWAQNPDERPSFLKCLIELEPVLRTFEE

Rsk2(h) = Rsk2(h) (human, UniProt P51812 1-740, limits assumed)
Chain of Rsk2(h) (P51812 whole entry): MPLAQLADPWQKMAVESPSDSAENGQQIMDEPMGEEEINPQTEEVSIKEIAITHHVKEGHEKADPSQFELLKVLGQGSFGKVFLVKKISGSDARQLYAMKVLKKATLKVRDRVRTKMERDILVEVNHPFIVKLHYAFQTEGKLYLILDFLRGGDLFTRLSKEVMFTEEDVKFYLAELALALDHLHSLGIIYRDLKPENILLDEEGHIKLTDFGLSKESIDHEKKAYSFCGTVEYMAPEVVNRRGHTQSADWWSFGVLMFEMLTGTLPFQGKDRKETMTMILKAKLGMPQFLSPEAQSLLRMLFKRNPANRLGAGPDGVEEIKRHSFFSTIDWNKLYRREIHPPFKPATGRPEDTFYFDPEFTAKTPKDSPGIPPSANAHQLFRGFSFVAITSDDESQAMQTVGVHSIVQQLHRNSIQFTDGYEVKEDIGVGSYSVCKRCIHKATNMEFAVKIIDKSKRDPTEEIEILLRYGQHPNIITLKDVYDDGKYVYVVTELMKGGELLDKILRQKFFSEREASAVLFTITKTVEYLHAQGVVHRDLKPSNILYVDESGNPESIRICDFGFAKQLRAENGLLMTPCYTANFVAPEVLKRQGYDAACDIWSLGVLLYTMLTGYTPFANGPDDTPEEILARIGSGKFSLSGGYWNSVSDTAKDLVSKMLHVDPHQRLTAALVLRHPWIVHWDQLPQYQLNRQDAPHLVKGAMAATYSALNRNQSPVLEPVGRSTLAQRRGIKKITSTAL

SAPK2a(T106M)(h) = SAPK2a(T106M)(h) (human, UniProt Q16539 1-360)
Chain of SAPK2a(T106M)(h) (Q16539 whole entry T106M): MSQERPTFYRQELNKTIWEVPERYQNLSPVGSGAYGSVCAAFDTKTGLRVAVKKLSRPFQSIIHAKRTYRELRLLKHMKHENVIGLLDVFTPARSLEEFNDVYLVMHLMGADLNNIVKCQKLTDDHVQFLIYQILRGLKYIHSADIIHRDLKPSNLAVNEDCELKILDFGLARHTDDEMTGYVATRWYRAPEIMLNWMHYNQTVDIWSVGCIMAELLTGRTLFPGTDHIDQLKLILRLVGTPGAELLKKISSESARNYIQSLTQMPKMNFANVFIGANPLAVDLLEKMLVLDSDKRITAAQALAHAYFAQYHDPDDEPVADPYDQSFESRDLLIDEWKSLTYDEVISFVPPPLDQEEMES

SAPK4(h) = biological target: T3, SAPK4(h)
TAK1(h) = biological target: T4, TAK1(h)
EphB1(h) = biological target: T5, EphB1(h)
FGFR1(V561M)(h) = FGFR1(V561M)(h) (human, UniProt P11362 456-765, limits assumed)
Chain of FGFR1(V561M)(h) (P11362 456-765 V561M limits assumed): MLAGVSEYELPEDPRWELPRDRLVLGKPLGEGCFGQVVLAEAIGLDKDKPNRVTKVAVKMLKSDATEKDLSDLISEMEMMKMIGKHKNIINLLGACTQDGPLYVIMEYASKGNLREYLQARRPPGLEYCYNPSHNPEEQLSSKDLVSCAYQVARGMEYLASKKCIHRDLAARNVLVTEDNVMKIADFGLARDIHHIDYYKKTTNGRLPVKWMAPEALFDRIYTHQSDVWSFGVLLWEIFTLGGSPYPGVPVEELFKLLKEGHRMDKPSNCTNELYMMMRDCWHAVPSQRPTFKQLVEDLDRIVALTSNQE

| Binder | % activity (ALK(h)) [%] | % activity (Met(Y1248C)(h)) [%] | % activity (MRCKβ(h)) [%] | % activity (NEK2(h)) [%] | % activity (PKCβII(h)) [%] | % activity (RIPK2(h)) [%] | % activity (Rsk2(h)) [%] | % activity (SAPK2a(T106M)(h)) [%] | % activity (SAPK4(h)) [%] | % activity (TAK1(h)) [%] | % activity (EphB1(h)) [%] | % activity (FGFR1(V561M)(h)) [%] |
| --- | --- | --- | --- | --- | --- | --- | --- | --- | --- | --- | --- | --- |
| FAKLAARLYRKALARQLGVAA [MMI-0300] | 19 | 84 | 83 | 78 | 82 | 97 | 51 | 97 | 96 | 122 | 44 | 74 |
| KAFAKLAARLYRKALARQLGVAA [MMI-0400] | 16 | 36 | 71 | 61 | 75 | 98 | 38 | 99 | 91 | 177 | 58 | 74 |
